Experimental data reported in US7201905B2, “Bi-functional cancer treatment agents” (Greenville Hospital System, priority 2001, dated 2007).

How the values were obtained:
L-1210 tumor cells = details: inhibiting cell growth and differentiation, read-out: IC50, cytotoxic effects against L-1210 tumor cells; cited from earlier work
[1] = system: T-47D human breast cancer cells; test: T-47D co-culture method with L cells (FIG. 3); assay type: cell-based; details: co-cultured with L-PRL or L-hPRL-G129R cells, dose-response
Text: The x-axis represents the co-cultured L cell (control, L-PRL or L-hPRL-G129R cell numbers. Each data point represents a mean of at least three independent experiments with triplicate wells.

[2] = system: STAT5 phosphorylation in T-47D human breast cancer cells; test: STAT 5 phosphorylation/immunoprecipitation assay; assay type: cell-based; details: T-47D cells, 30 min incubation, anti-phosphotyrosine blot
Protocol: T-47D cells are grown in RPMI-1640 medium containing 10% Charcoal Stripped Fetal Bovine Serum (CSFBS; growth medium). For each experiment, cells are passed into 6 well culture plates in growth medium till reach 90% confluence. On the day of the experiment, cells are depleted in serum free media for one hour and incubated in hPRL, hPRL-G129R or combination of two for 30 min. After treatment, T47-D cells are washed once with ice cold PBS and collected by gentle scraping in 1 ml ice cold lysis buffer [20 mM Tris-Cl (pH 7.4), 100 mM NaCl, 2 mM EDTA, 1% NP-40, 1 mM phenylmethylsulfonyl fluoride, 10 ug/ml aprotinin, 10 ug/ml leupeptin]. The lysis mixture is then passed through a 22 gauge needle several times avoiding air bubbles and spin at maximum speed for 20 minutes. The supernatant is then transferred to a new microcentrifuge tube. Five μg of STAT5 monoclonal antibody is then added to 100 microliters (200–500 micrograms total protein) of cell lysate along with 400 microliters of ddH20 and 500 microliters of 2×IP buffer [1% Triton X-100, 150 mM NaCl, 10 mM Tris pH 7.4, 1 mM EDTA, 1 mM EGTA, 0.2 mM sodium vanadate, 0.2 mM PMSF, 0.5% NP-40] to each reaction. After overnight incubation at 4° C. and gentle rotation, 50 microliters of prewashed (1×IP buffer) protein A agarose beads are added to each IP reaction and continue the Incubation for another 2 hours at 4C. […]

[3] = system: T-47D human breast cancer cells; test: T-47D human breast cancer cell proliferation assay (FIG. 4); assay type: cell-based
Text: The x-axis represents the hPRL-G129R concentration either in the absence (open bars) or presence of 4-OH-Tamoxifen. Each data point represents a mean of at least three independent experiments with triplicate wells.

Molecule	IC50 (L-1210 tumor cells) [nM]	effect on T-47D cells, co-culture method [1]	block of signal transduction (STAT5 phosphorylation) induced by hPRL [2]	effect on T-47D cell proliferation ([3]; hPRL-G129R alone, dose-response)	effect on T-47D cell proliferation in combination ([3]; in presence of 4-OH-Tamoxifen)
COc1ccc2c(c[n+](C)c3c4cc5c(cc4ccc23)OCO5)c1OC [chelerythrine, 1,2-dimethoxy-12-methyl[1,3]benzodioxolo[5,6-c]phenanthridinium]	53				
hPRL-G129R: human prolactin with substitution of Gly to Arg at position 129 (SEQ ID NO: 34), hPRLR antagonist (protein) LPICPGGAARCQVTLRDLFDRAVVLSHYIHNLSSEMFSEFDKRYTHGRGFITKAINSCHTSSLATPEDKEQAQQMNQKDFLSLIVSILRSWNEPLYHLVTEVRGMQEAPEAILSKAVEIEEQTKRLLEGMELIVSQVHPETKENEIYPVWSGLPSLQMADEESRLSAYYNLLHCLRRDSHKIDNYLKLLKCRIIHNNNC		dose-response inhibitory effects	able to block the signal transduction induced by hPRL	dose-response inhibitory effects	additive effects with 4-OH-Tamoxifen
hPRL: human prolactin (protein) LPICPGGAARCQVTLRDLFDRAVVLSHYIHNLSSEMFSEFDKRYTHGRGFITKAINSCHTSSLATPEDKEQAQQMNQKDFLSLIVSILRSWNEPLYHLVTEVRGMQEAPEAILSKAVEIEEQTKRLLEGMELIVSQVHPETKENEIYPVWSGLPSLQMADEESRLSAYYNLLHCLRRDSHKIDNYLKLLKCRIIHNNNC		stimulatory effects			
